Consider 1 molecule from US20200270321A1.

The target in experiment [1] is human CD19 (as in Table 11) (human) (UniProt P15391). The experiment is described as follows: binding to human CD19 after incubation at pH 7.4; method not stated.
The target is the same in experiment [2]. The experiment is described as follows: binding to human CD19 after incubation at pH 6.0; method not stated.
Experiment [3] has the same target. The experiment is described as follows: BIAcore (SPR); format not stated.

B1: wild-type humanized anti-human CD19 antibody 8B8 (antibody, V domains shown)
VH: QVQLVQSGAEVKKPGASVKVSCKASGYTFTDYIMHWVRQAPGQGLEWMGYINPYNDGSKYTEKFNGRVTMTSDTSISTAYMELSRLRSDDTAVYYCARGTYYYGSALFDYWGQGTTVTVSS
VL: DIVMTQTPLSLSVTPGQPASISCKSSQSLENSNGNTYLNWYLQKPGQSPQLLIYRVSKRFSGVPDRFSGSGSGTDFTLKISRVEAEDVGVYYCLQLTHVPYTFGQGTKLEIK
As a reminder, the Kd is the free concentration of one partner at which half of the binding sites on the other are occupied at equilibrium, for simple one-to-one binding. Read a high Kd as a looser complex. The molecule B1 came in with a human CD19 binding after pH 7.4 incubation [%] in experiment [1] of 46%. For the same molecule, the human CD19 binding after pH 6.0 incubation [%] in experiment [2] worked out at 90%. Moreover, the Kd in experiment [3] was 5 nM.
